Reference: PMC4643347

Assays:
[1] = biological target: ST50, outer-membrane protein of the multi-drug efflux system from Salmonella enterica serovar Typhi (Salmonella enterica serovar Typhi); experiment: SEC; Superdex 200 10/30 GL; Tris 20 mM pH 7.5, NaCl 150 mM, β-DDM 0.2%; major fraction at about 220 kDa (trimer plus detergent micelle)
[2] = biological target: ST50, outer-membrane protein of the multi-drug efflux system from Salmonella enterica serovar Typhi (Salmonella enterica serovar Typhi); experiment: crystal structure; ST50 crystallised by hanging-drop vapor diffusion; sodium acetate 100 mM pH 4.6, NaCl 86 mM, PEG 8000 10.4%, β-OG 0.4%, 18 °C; 2.98 Å; three protomers per asymmetric unit

**Q.** How did the stoichiometry N [1] turn out when “ST50, outer-membrane protein of the multi-drug efflux system from Salmonella enterica serovar Typhi (natural protein)” was run?
**A.** 3

**Q.** And the stoichiometry N [2]?
**A.** 3
